Paper PMC9474812, “Structure of the membrane-bound formate hydrogenlyase complex from Escherichia coli” (Nature Communications, 2022)

T1: HycC (Escherichia coli, UniProt P16429 1-608)
T1 construct: Native subunit from the hycABCDEFGHI operon, not tagged; also called antiporter-like subunit HycC; source: endogenous, E. coli strain MG059e1, anaerobic fermentation; co-purified with His10-HycE from LMNG-solubilised membranes (HisTrap, SEC)
T1 sequence (looked up): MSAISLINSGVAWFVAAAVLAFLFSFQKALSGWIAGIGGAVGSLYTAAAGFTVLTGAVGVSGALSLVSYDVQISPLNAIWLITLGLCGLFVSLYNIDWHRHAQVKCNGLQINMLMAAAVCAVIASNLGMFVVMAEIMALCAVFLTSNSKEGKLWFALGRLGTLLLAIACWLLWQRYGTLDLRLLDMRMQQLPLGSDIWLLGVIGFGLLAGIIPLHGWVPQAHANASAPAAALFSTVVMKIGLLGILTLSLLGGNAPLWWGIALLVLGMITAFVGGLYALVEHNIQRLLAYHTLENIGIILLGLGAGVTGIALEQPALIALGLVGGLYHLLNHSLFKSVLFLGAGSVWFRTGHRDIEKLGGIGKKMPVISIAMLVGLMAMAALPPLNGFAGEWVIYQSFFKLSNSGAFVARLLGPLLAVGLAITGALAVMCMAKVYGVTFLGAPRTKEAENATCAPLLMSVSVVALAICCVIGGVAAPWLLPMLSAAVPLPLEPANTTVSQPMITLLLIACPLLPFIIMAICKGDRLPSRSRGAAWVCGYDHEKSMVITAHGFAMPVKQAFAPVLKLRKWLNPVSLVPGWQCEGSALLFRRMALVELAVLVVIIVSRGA

T2: formate dehydrogenase H (FdhF) (Escherichia coli, UniProt P07658 1-715, metal-coordinating selenocysteine (Sec); position not given)
T2 construct: Formate dehydrogenase H, FdhF, subunit of the E. coli formate hydrogenlyase (FHL) complex; carries Mo(MGD)2 and [4Fe4S] cluster A1; Native subunit, not tagged; also called formate dehydrogenase subunit FdhF; source: endogenous, E. coli strain MG059e1, anaerobic fermentation; co-purified with His10-HycE from LMNG-solubilised membranes (HisTrap, SEC)
T2 sequence (looked up): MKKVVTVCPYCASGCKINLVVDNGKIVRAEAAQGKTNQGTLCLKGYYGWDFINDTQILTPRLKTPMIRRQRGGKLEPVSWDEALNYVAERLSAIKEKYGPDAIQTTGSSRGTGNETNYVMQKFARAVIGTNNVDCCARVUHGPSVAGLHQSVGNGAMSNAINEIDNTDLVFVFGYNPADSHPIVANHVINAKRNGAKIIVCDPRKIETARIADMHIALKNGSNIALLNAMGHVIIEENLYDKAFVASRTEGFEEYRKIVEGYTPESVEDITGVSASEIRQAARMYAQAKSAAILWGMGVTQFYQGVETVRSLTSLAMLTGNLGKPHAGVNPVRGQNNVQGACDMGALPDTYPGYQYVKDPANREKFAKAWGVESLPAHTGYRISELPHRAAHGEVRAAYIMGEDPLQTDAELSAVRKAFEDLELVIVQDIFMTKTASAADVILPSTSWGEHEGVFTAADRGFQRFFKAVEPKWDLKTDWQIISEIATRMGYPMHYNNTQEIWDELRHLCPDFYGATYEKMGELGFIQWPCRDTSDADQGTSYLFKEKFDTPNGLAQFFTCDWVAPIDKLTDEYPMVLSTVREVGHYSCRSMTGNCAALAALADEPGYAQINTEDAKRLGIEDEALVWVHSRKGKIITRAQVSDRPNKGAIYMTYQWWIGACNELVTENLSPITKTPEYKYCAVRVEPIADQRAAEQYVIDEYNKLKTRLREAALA

B1: HycE, the large hydrogenase subunit of FHL, with an internal 10x His affinity tag (enzyme, Escherichia coli, UniProt P16431 1-537, looked up)
chain: MSEEKLGQHYLAALNEAFPGVVLDHAWQTKDQLTVTVKVNYLPEVVEFLYYKQGGWLSVLFGNDERKLNGHYAVYYVLSMEKGTKCWITVRVEVDANKPEYPSVTPRVPAAVWGEREVRDMYGLIPVGLPDERRLVLPDDWPDELYPLRKDSMDYRQRPAPTTDAETYEFINELGDKKNNVVPIGPLHVTSDEPGHFRLFVDGENIIDADYRLFYVHRGMEKLAETRMGYNEVTFLSDRVCGICGFAHSTAYTTSVENAMGIQVPERAQMIRAILLEVERLHSHLLNLGLACHFTGFDSGFMQFFRVRETSMKMAEILTGARKTYGLNLIGGIRRDLLKDDMIQTRQLAQQMRREVQELVDVLLSTPNMEQRTVGIGRLDPEIARDFSNVGPMVRASGHARDTRADHPFVGYGLLPMEVHSEQGCDVISRLKVRINEVYTALNMIDYGLDNLPGGPLMVEGFTYIPHRFALGFAEAPRGDDIHWSMTGDNQKLYRWRCRAATYANWPTLRYMLRGNTVSDAPLIIGSLDPCYSCTDR
notes: HycE, large [NiFe] hydrogenase subunit of the E. coli formate hydrogenlyase (FHL) complex; His10 tag placed after Gly-83; also called [NiFe] hydrogenase HycE; Hyd-3 large subunit; source: purified from LMNG-solubilised membranes (HisTrap, SEC); not shown: His10, internal (after residue 83), kept
B2: HycD (natural protein, Escherichia coli, UniProt P16430 1-307, looked up)
chain: MSVLYPLIQALVLFAVAPLLSGITRVARARLHNRRGPGVLQEYRDIIKLLGRQSVGPDASGWVFRLTPYVMVGVMLTIATALPVVTVGSPLPQLGDLITLLYLFAIARFFFAISGLDTGSPFTAIGASREAMLGVLVEPMLLLGLWVAAQVAGSTNISNITDTVYHWPLSQSIPLVLALCACAFATFIEMGKLPFDLAEAEQELQEGPLSEYSGSGFGVMKWGISLKQLVVLQMFVGVFIPWGQMETFTAGGLLLALVIAIVKLVVGVLVIALFENSMARLRLDITPRITWAGFGFAFLAFVSLLAA
notes: HycD, integral membrane subunit (ND1 homolog) of the E. coli formate hydrogenlyase (FHL) complex, eight TMHs; Native subunit from the hycABCDEFGHI operon, not tagged; also called membrane-anchor subunit HycD (ND1 homolog); source: endogenous, E. coli strain MG059e1, anaerobic fermentation; co-purified with His10-HycE from LMNG-solubilised membranes (HisTrap, SEC)
B3: HycF (natural protein, Escherichia coli, UniProt P16432 1-180, looked up)
chain: MFTFIKKVIKTGTATSSYPLEPIAVDKNFRGKPEQNPQQCIGCAACVNACPSNALTVETDLATGELAWEFNLGHCIFCGRCEEVCPTAAIKLSQEYELAVWKKEDFLQQSRFALCNCRVCNRPFAVQKEIDYAIALLKHNGDSRAENHRESFETCPECKRQKCLVPSDRIELTRHMKEAI
notes: HycF, ferredoxin-like subunit (NDUFS8 homolog) of the E. coli formate hydrogenlyase (FHL) complex; coordinates [4Fe4S] clusters F1, F2 and a metal ion at Cys117, Cys120, Cys155, Cys158; Native subunit from the hycABCDEFGHI operon, not tagged; also called ferredoxin-like protein HycF; source: endogenous, E. coli strain MG059e1, anaerobic fermentation; co-purified with His10-HycE from …
B4: HycB (natural protein, Escherichia coli, UniProt P0AAK1 1-203, looked up)
chain: MNRFVIADSTLCIGCHTCEAACSETHRQHGLQSMPRLRVMLNEKESAPQLCHHCEDAPCAVVCPVNAITRVDGAVQLNESLCVSCKLCGIACPFGAIEFSGSRPLDIPANANTPKAPPAPPAPARVSTLLDWVPGIRAIAVKCDLCSFDEQGPACVRMCPTKALHLVDNTDIARVSKRKRELTFNTDFGDLTLFQQAQSGEAK
notes: HycB, ferredoxin-like subunit of the E. coli formate hydrogenlyase (FHL) complex; coordinates [4Fe4S] clusters B1-B4; Native subunit from the hycABCDEFGHI operon, not tagged; also called ferredoxin-like protein HycB; source: endogenous, E. coli strain MG059e1, anaerobic fermentation; co-purified with His10-HycE from LMNG-solubilised membranes (HisTrap, SEC)

Assays:
HycC [1] = biological target: T1, HycC; experiment: co-purification (His-tag affinity, then SEC); aerobic isolation: membranes solubilised with 0.5% LMNG, HisTrap FF by the His10 tag in HycE, Superdex 200 Increase; 20 mM Tris, 200 mM NaCl, 1 mM DTT, 0.005% LMNG, pH 7.5; settings: partners not purified
HycC [2] = biological target: T1, HycC; experiment: cryo-EM structure; anaerobically isolated FHL (hexameric HycBCDEFG) in LMNG, grids prepared in the anaerobic chamber with fluorinated fos-choline-8, 2.6 Å; settings: both partners purified
[3] = biological target: B1; experiment: co-purification (His-tag affinity, then SEC); aerobic isolation: membranes solubilised with 0.5% LMNG, HisTrap FF by the His10 tag in HycE, Superdex 200 Increase; 20 mM Tris, 200 mM NaCl, 1 mM DTT, 0.005% LMNG, pH 7.5; settings: partners not purified
[4] = biological target: T2, formate dehydrogenase H (FdhF); experiment: cryo-EM structure; aerobically isolated FHL (heptameric FdhF-HycBCDEFG) in LMNG, single-particle analysis, 3.4 Å (focused refinements 3.0-3.4 Å); settings: both partners purified
HycB = biological target: B4; experiment: cryo-EM structure; anaerobically isolated FHL (hexameric HycBCDEFG) in LMNG, grids prepared in the anaerobic chamber with fluorinated fos-choline-8, 2.6 Å; settings: both partners purified
[5] = biological target: B1; experiment: co-purification (His-tag affinity, then SEC); anaerobic isolation: as the aerobic one but in an anaerobic chamber (<1 ppm O2, 3-4% hydrogen in nitrogen), anaerobic buffers, lysis by sonication (also bead-beating or B-PER); settings: partners not purified

Binder: B1
binding result (HycC [1]): binds

Binder: B2
binding result (HycC [2]): binds | binding result [3]: binds

Binder: B3
binding result [4]: binds | binding result (HycB): binds

Binder: B4
binding result [4]: binds | binding result [5]: binds
